The values below come from patent publication US20190381086A1 (Scripps Research, published 2019).

Assay [1] has as its target T1, ubiquitin (UniProt P0CG48 1-76).
T1 construct: Bought protein
Kind of assay: His-tag pull-down.

The target in assay [2] is T2, E1 for neddylation, APPBP1/UBA3 heterodimer (UniProt Q13564 1-534; Q8TBC4 22-463).
T2 construct: GST-tagged or untagged preparations are mentioned; also called GST-APPBP1/UBA3; NAE; not shown: GST tag on APPBP1 (GST-APPBP1/UBA3)
T2 sequence (looked up) 1: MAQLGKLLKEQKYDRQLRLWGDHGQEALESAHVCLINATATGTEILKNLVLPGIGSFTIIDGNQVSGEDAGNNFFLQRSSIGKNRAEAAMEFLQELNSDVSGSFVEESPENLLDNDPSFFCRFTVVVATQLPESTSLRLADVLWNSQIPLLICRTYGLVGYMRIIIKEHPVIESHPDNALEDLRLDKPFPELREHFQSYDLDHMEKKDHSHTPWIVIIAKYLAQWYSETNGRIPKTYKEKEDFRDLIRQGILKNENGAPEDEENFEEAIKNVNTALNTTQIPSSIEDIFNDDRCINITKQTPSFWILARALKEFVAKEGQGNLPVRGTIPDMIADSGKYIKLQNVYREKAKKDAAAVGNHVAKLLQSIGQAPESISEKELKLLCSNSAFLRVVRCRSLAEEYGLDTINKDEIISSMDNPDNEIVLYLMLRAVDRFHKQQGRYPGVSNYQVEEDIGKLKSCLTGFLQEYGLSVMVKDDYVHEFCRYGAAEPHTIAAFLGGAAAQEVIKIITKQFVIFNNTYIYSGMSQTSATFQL
T2 sequence (looked up) 2: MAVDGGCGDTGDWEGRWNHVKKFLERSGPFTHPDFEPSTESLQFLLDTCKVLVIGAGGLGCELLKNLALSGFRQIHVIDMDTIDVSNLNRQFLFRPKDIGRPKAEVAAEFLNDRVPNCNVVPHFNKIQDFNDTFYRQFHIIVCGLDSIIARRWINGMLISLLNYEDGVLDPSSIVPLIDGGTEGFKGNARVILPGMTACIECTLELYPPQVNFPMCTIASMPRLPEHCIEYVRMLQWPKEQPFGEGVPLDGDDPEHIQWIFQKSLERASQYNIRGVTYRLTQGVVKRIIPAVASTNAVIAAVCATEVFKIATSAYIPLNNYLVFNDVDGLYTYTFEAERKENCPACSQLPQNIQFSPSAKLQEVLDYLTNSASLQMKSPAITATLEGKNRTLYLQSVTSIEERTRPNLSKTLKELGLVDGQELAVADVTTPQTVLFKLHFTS
Nature of the assay: biolayer interferometry, E1 (APPBP1/UBA3) immobilized, analyte 62.5-500 nM. On the technique in general: Biolayer interferometry detects binding as a change in optical thickness at a sensor tip.

The target in assay [3] is T3, ABD (V541-E685) of GlyRS (human, UniProt P41250 595-739).
T3 construct: Cloned, expressed and purified in a similar way as the full-length GlyRS; also called ABD GlyRS; ABD domain alone
T3 sequence: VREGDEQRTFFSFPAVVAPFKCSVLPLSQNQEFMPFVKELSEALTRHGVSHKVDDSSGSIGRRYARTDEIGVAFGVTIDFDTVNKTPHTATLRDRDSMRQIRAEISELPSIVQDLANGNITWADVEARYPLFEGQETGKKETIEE
Nature of the assay: GST pull-down on glutathione beads, blot anti-GlyRS.

Assay [4] concerns the target T4, N-terminal GST-tagged GlyRS (human, UniProt P41250 55-739).
T4 construct: also called GST-GlyRS; immobilized GlyRS; not shown: N-terminal GST tag from a modified pET28a vector
T4 sequence: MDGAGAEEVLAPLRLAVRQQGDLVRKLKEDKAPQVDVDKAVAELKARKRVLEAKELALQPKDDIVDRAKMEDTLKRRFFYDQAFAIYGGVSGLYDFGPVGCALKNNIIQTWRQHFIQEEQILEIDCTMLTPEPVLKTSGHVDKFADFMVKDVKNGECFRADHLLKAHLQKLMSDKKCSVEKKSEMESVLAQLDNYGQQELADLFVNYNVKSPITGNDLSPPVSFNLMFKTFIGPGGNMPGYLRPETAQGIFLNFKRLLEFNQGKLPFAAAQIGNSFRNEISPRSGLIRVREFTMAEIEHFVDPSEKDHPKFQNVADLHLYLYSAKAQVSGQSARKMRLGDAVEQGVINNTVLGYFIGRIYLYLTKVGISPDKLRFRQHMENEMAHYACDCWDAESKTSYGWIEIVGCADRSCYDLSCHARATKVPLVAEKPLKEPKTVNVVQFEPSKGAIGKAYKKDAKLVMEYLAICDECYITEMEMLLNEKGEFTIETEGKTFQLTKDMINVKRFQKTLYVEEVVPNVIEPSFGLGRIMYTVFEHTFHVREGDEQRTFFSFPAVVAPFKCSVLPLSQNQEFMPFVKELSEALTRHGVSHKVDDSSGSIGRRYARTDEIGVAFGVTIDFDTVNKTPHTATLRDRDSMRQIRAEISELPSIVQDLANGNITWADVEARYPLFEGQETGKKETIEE
Nature of the assay: biolayer interferometry (Octet), GlyRS immobilized, 30°C.

B1: His-tagged human TrpRS (tryptophanyl-tRNA synthetase) (enzyme, UniProt P23381 1-471, looked up)
chain: MPNSEPASLLELFNSIATQGELVRSLKAGNASKDEIDSAVKMLVSLKMSYKAAAGEDYKADCPPGNPAPTSNHGPDATEAEEDFVDPWTVQTSSAKGIDYDKLIVRFGSSKIDKELINRIERATGQRPHHFLRRGIFFSHRDMNQVLDAYENKKPFYLYTGRGPSSEAMHVGHLIPFIFTKWLQDVFNVPLVIQMTDDEKYLWKDLTLDQAYSYAVENAKDIIACGFDINKTFIFSDLDYMGMSSGFYKNVVKIQKHVTFNQVKGIFGFTDSDCIGKISFPAIQAAPSFSNSFPQIFRDRTDIQCLIPCAIDQDPYFRMTRDVAPRIGYPKPALLHSTFFPALQGAQTKMSASDPNSSIFLTDTAKQIKTKVNKHAFSGGRDTIEEHRQFGGNCDVDVSFMYLTFFLEDDDKLEQIRKDYTSGAMLTGELKKALIEVLQPLIAEHQARRKEVTDEIVKEFMTPRKLSFDFQ
notes: not shown: His tag
For B1, in assay [1], the binding result was “no binding”.

B2: ΔWHEP GlyRS (enzyme)
chain: IVDRAKMEDTLKRRFFYDQAFAIYGGVSGLYDFGPVGCALKNNIIQTWRQHFIQEEQILEIDCTMLTPEPVLKTSGHVDKFADFMVKDVKNGECFRADHLLKAHLQKLMSDKKCSVEKKSEMESVLAQLDNYGQQELADLFVNYNVKSPITGNDLSPPVSFNLMFKTFIGPGGNMPGYLRPETAQGIFLNFKRLLEFNQGKLPFAAAQIGNSFRNEISPRSGLIRVREFTMAEIEHFVDPSEKDHPKFQNVADLHLYLYSAKAQVSGQSARKMRLGDAVEQGVINNTVLGYFIGRIYLYLTKVGISPDKLRFRQHMENEMAHYACDCWDAESKTSYGWIEIVGCADRSCYDLSCHARATKVPLVAEKPLKEPKTVNVVQFEPSKGAIGKAYKKDAKLVMEYLAICDECYITEMEMLLNEKGEFTIETEGKTFQLTKDMINVKRFQKTLYVEEVVPNVIEPSFGLGRIMYTVFEHTFHVREGDEQRTFFSFPAVVAPFKCSVLPLSQNQEFMPFVKELSEALTRHGVSHKVDDSSGSIGRRYARTDEIGVAFGVTIDFDTVNKTPHTATLRDRDSMRQIRAEISELPSIVQDLANGNITWADVEARYPLFEGQETGKKETIEE
notes: also called AWHEP GlyRS; core synthetase; not shown: His tag
B2 yielded a Kd in assay [2] of 177 nM.

B3: GST-Ubc12 (enzyme)
chain: MIKLFSLKQQKKEEESAGGTKGSSKKASAAQLRIQKDINELNLPKTCDISFSDPDDLLNFKLVICPDEGFYKSGKFVFSFKVGQGYPHDPPKVKCETMVYHPNIDLEGNVCLNILREDWKPVLTINSIIYGLQYLFLEPNPEDPLNKEAAEVLQNNRRLFEQNVQRSMRGGYIGSTYFERCLK
modifications: N-terminal GST fusion, not carried in the letters
notes: Bait on glutathione beads in the GST pull-down; Band between 42 and 57 kDa in the input blot; also called GST-tagged Ubc12; not shown: GST tag and the linker to Ubc12
Regarding B3, the binding result in assay [3] is listed as “no binding”.

B4: Ubc12 (enzyme, UniProt P61081 1-183, looked up)
chain: MIKLFSLKQQKKEEESAGGTKGSSKKASAAQLRIQKDINELNLPKTCDISFSDPDDLLNFKLVICPDEGFYKSGKFVFSFKVGQGYPHDPPKVKCETMVYHPNIDLEGNVCLNILREDWKPVLTINSIIYGLQYLFLEPNPEDPLNKEAAEVLQNNRRLFEQNVQRSMRGGYIGSTYFERCLK
notes: GST-tagged or untagged preparations are mentioned; also called Ubc12 alone; apo Ubc12
For B4, the Kd in assay [4] amounted to 488 nM.

A word on the Kd: it is the constant that tells how readily two partners part at equilibrium. High values mean weaker binding, low ones tighter binding.
